other: SILAC ratio EE:AA data for one substance are collected here from publication PMC11030525.

The target of assay [1] is AHA1, mouse (UniProt Q8BK64). In words: mCherry antibody affinity purification (IP) with SILAC LC-MS. The conditions noted are these: E14 ESCs; AA mutant in light media, EE mutant in heavy media; representative spectrum; mCherry EE:AA = 1.08 in the same panel.
Assay [2] addresses FKBP4, mouse (UniProt P30416). Described as above. Conditions: E14 ESCs; AA mutant in light media, EE mutant in heavy media; representative spectrum; mCherry EE:AA = 1.08 in the same panel.

mCherry-HSP90β-Wild type, P08238 S226E; S255E, sequence (P08238 whole entry S226E/S255E): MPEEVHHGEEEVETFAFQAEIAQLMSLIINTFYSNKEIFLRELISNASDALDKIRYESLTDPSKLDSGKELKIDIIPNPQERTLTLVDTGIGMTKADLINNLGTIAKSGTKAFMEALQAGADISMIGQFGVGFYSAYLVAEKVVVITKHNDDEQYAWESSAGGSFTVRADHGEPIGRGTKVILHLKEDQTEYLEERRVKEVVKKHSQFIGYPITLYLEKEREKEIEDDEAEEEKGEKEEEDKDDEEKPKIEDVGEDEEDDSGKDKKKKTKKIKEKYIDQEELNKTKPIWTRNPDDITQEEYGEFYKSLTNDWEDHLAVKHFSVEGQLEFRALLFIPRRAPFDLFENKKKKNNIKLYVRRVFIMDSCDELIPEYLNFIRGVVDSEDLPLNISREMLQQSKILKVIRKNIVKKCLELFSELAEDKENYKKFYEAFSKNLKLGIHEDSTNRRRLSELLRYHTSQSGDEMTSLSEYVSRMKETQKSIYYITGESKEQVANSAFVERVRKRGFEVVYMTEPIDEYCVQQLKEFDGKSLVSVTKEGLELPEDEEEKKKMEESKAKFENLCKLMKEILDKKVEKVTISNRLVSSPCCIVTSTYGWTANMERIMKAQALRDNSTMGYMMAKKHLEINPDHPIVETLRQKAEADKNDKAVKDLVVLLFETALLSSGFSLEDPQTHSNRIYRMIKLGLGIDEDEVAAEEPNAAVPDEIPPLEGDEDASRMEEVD
AHA1, mouse, sequence (Q8BK64 whole entry): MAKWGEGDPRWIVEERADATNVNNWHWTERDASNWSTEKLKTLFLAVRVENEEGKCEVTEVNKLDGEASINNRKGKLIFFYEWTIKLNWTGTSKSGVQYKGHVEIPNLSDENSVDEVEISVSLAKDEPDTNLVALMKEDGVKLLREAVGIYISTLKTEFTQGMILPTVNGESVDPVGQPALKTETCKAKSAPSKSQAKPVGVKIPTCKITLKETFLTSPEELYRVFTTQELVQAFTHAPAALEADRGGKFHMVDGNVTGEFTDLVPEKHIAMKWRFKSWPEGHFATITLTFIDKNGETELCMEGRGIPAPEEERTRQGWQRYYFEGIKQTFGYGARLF
FKBP4, mouse, sequence (P30416 whole entry): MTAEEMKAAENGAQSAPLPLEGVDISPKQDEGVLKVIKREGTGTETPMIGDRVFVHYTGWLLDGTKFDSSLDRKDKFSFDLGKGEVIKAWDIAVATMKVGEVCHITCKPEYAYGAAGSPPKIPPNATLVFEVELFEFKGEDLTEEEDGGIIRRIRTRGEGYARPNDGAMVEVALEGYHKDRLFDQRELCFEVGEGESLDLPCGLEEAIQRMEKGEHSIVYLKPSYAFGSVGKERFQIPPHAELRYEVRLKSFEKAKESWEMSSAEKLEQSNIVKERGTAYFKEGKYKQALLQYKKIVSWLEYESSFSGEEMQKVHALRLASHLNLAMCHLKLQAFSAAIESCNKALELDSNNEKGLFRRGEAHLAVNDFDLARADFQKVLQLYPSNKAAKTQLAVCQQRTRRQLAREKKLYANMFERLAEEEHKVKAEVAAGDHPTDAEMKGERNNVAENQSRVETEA

Turning to “mCherry-HSP90β-Wild type, P08238 S226E; S255E”, the other: SILAC ratio EE:AA in assay [1] came to 1.69; in assay [2] it was 1.74.
